Assay results taken from paper doi:10.1101/2023.04.17.537198, “Bitesize bundles F-actin and influences actin remodeling in syncytial Drosophila embryo development” (bioRxiv, 2025).

Experiments:
[1] = molecular target: T1, Rabbit skeletal muscle actin, polymerised (F-actin) (rabbit, UniProt P68135 1-377); assay: co-sedimentation; high-speed pelleting: 0.5 uM BtszB-CT with 0, 0.1, 0.25, 0.5, 1, 2, 4 uM F-actin, 30 min at room temperature, 316,000 x g for 20 min at 25°C; supernatant and pellet on Coomassie gels, densitometry; BtszB-CT pelleted without F-actin subtracted; fit to a Hill equation (cooperative binding model); conditions: both partners purified
[2] = molecular target: T1, Rabbit skeletal muscle actin, …; assay: cell-based or functional assay

B1: C-terminal fragment of Bitesize isoform B (BtszB-CT) (domain or fragment)
chain: VKGQVEFAMQYNYKLSALEVHVVRCKDLAAVDAKRNRSDPYVKVYLLPDKSKAGKRKTKVKKHTLNPIFDETMRFHTPISSLESRTLWLTVWHSDMFGRNDFLGEVSVNLQGRLFDNPQSQWYLLQERSEPFDEVATYRGDIVVGLKYIPPENIKSSFFSRGSSITGSSSNLRKFGGSIKSVASKSERTSKGGQLHVLVKEAKHLSPIKANGTCDAFCKSYLLPDRTRSSKQKTPVVKRTLHPSWNYTFVYEDVSLEELSERALELTVWDHDRLASNEFVGGIRFSLGTGRSYGRQVEWMDATGKELSLWQNMLDRPNFWVEGSLVLRSSLDGIRANLP
For B1, the Kd [1] was 450 nM and the “TIRF microscopy bundling assay: filament/bundle fluorescence intensity at FWHM, normalised to the mean of the control reaction (2 uM F-actin), with 1 uM BtszB-CT” value [2] was 3.4 fold of the control reaction (2 uM F-actin).
